What was measured:
[1] = biological target: T1, Recombinant Hyr1 N-terminus fragment (amino acids 63-350) with N-terminal 6xHis tag (Candida albicans, UniProt Q5AL03 63-350); assay: ELISA, plate coated with recombinant Hyr1 N-terminus, titrated IgG1
T1 sequence: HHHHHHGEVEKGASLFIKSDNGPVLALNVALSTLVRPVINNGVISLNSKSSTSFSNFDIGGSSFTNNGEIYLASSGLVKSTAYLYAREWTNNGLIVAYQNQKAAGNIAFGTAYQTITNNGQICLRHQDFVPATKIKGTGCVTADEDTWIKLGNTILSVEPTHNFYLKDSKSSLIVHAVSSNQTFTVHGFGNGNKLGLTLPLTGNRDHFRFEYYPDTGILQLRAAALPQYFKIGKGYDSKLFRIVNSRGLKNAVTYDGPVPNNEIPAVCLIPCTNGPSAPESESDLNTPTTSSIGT

[2] = biological target: T2, human serum albumin (human, UniProt P02768 25-609); assay: ELISA
T2 construct: also called HSA
T2 sequence (P02768 25-609 limits assumed): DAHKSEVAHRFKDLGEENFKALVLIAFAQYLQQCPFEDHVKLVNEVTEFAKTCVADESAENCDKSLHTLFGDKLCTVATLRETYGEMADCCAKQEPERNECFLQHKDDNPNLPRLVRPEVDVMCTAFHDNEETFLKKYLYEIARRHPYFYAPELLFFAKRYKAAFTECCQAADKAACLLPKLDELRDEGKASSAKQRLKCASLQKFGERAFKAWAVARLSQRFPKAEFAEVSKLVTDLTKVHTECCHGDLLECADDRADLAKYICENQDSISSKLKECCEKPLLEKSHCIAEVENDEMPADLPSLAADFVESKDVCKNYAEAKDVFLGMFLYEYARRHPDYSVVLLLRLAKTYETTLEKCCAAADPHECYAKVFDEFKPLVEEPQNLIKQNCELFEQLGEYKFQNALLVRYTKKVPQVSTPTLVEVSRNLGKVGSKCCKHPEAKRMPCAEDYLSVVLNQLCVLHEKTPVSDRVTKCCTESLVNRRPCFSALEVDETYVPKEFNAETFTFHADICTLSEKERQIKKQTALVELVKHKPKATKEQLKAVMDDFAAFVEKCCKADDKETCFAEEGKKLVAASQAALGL

B1: AB123 (antibody, V domains shown)
VH: EVQLLESGGGVVQPGRSLRLSCAASGFTFSNYGMHWVRQAPGKGLEWVAVVWFDGSYKYYTDSVKGRFTISRDNSKSTLYLQMNSLRAEDTAVYYCVSPIMTSAFDIWGPGTMVSVSS
VL: QLVLTQPPSASGSPGQSVTISCTGTSSDVGGSNFVSWYQHHPGKAPKLMIYEVSQRPSGVPDRFSGSKSGNTASLTVSGLQADDEADYYCSSYAGSVVLFGGGTKLTVL
notes: also called 06-AB-123; anti-Hyr1 mAb AB123
With B1 the EC50 [1] was 0.0533 µg/mL and the binding result [2] was “no binding”.

B2: AB120 (antibody, V domains shown)
VH: EVQLVQSGGGLVQPGGSLGLSCAASGFIFTSYAMTWVRQAPGKGLEWVSVITGNVGTSYYADSVKGRFTISRDNSKKTVSLQMNSLRAEDTAIYYCVKTRYDFSSGYYFDDWGQGTLVSVSS
VL: DIVMTQSPSSVSASVGDKVTITCRASQGISRWLAWYQQKPGEAPELLIYAASSLQSGVPSRFSGSGSGTDFTLTISSLQPEDFATYYCQQANSFPITFGQGTRLQIK
notes: also called 06-AB-120; anti-Hyr1 mAb AB120
B2 was tested, and the EC50 [1] was 0.104 µg/mL and the binding result [2] was “no binding”.

B3: AB122 (antibody, V domains shown)
VH: EVQLVQSGGGLAQPGRSLRLSCAASGFGFDDFAMHWVRQPPGKGLEWVSGLTWNGGSIDYAGSVRGRFTISRDNAKNSLFLQMNSLRAEDTALYYCAKGLSGGTMAPFDIWGQGTMVSVSS
VL: QAGLTQPPSVSVAPGQTATIPCGGNNIGSKHVHWYQQKPGQAPVAVVYDDSDRPSGVPERFSGSNSGNTATLTISSVEAGDEADYYCQVWDRSSDHFWLFGGGTRLTVL
notes: also called 06-AB-122; anti-Hyr1 mAb AB122
In the case of B3, the EC50 [1] is reported as 0.0496 µg/mL and the binding result [2] is reported as “no binding”.

B4: AB121 (antibody, V domains shown)
VH: EVQLVESGGTLVQPGGSLRLSCAASGFTFSDYWMNWVRQAPGKGLEWVANIKQDGSEKYYVDSLRGRVTISRDNAQNSVFLQMHSLSVEDTAVYYCARDGYTFGPATTELDHWGRGTLVSVSS
VL: QLVLTQPPSVSVSPGQTASITCSGDELRNKYTSWYQQKSGQSPVLVIYQDNNRPSGIPERFSGSQSGDTATLTISGTQAVDEADYYCQAWVSQTLVFGGGTKLTVL
notes: also called 06-AB-121; anti-Hyr1 mAb AB121
In the case of B4, the EC50 [1] is reported as 0.0765 µg/mL and the binding result [2] is reported as “no binding”.

Source: patent US20220153818A1 (UNIVERSITY COURT OF THE UNIVERSITY OF ABERDEEN, published 2022)
